B1: Interleukin-1 alpha (Homo sapiens), P01583 (parent)
chain: MAKVPDMFEDLKNCYSENEEDSSSIDHLSLNQKSFYHVSYGPLHEGCMDQSVSLSISETSKTSKLTFKESMVVVATNGKVLKKRRLSLSQSITDDDLEAIANDSEEEIIKPRSAPFSFLSNVKYNFMRIIKYEFILNDALNQSIIRANDQYLTAAALHNLDEAVKFDMGAYKSSKDDAKITVILRISKTQLYVTAQDEDQPVLLKEMPEIPKTITGSETNLLFFWETHGTKNYFTSVAHPNLFIATKQDYWVCLAGGPPSITDFQILENQA
B2: Claudin-19 (Homo sapiens), Q8N6F1-2 (parent)
chain: MANSGLQLLGYFLALGGWVGIIASTALPQWKQSSYAGDAIITAVGLYEGLWMSCASQSTGQVQCKLYDSLLALDGHIQSARALMVVAVLLGFVAMVLSVVGMKCTRVGDSNPIAKGRVAIAGGALFILAGLCTLTAVSWYATLVTQEFFNPSTPVNARYEFGPALFVGWASAGLAVLGGSFLCCTCPEPERPNSSPQPYRPGPSAAAREYV
partner: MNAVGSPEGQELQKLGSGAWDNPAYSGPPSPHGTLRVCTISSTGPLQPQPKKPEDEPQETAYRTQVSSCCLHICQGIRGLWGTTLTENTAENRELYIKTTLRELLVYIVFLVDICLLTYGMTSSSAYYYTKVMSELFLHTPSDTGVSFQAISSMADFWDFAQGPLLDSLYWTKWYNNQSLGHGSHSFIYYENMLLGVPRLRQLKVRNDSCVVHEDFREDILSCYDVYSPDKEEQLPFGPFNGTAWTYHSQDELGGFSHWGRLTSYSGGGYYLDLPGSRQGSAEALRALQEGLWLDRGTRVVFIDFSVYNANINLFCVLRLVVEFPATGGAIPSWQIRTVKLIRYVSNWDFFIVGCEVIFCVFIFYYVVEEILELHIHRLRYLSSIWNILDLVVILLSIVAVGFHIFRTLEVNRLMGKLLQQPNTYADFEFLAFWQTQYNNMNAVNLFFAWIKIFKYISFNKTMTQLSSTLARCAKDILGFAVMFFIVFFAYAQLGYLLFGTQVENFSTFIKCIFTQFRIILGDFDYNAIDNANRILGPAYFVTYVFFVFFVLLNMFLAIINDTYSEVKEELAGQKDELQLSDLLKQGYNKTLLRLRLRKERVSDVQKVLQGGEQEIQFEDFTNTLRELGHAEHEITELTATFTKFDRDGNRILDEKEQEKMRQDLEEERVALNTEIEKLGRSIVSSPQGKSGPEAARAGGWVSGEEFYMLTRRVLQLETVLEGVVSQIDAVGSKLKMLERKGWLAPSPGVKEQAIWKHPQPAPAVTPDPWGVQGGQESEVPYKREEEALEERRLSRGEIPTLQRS
B3: Phakinin (Homo sapiens), Q13515 (parent)
chain: MSERRVVVDLPTSASSSMPLQRRRASFRGPRSSSSLESPPASRTNAMSGLVRAPGVYVGTAPSGCIGGLGARVTRRALGISSVFLQGLRSSGLATVPAPGLERDHGAVEDLGGCLVEYMAKVHALEQVSQELETQLRMHLESKATRSGNWGALRASWASSCQQVGEAVLENARLMLQTETIQAGADDFKERYENEQPFRKAAEEEINSLYKVIDEANLTKMDLESQIESLKEELGSLSRNYEEDVKLLHKQLAGCELEQMDAPIGTGLDDILETIRIQWERDVEKNRVEAGALLQAKQQAEVAHMSQTQEEKLAAALRVELHNTSCQVQSLQAETESLRALKRGLENTLHDAKHWHDMELQNLGAVVGRLEAELREIRAEAEQQQQERAHLLARKCQLQKDVASYHALLDREESG
partner: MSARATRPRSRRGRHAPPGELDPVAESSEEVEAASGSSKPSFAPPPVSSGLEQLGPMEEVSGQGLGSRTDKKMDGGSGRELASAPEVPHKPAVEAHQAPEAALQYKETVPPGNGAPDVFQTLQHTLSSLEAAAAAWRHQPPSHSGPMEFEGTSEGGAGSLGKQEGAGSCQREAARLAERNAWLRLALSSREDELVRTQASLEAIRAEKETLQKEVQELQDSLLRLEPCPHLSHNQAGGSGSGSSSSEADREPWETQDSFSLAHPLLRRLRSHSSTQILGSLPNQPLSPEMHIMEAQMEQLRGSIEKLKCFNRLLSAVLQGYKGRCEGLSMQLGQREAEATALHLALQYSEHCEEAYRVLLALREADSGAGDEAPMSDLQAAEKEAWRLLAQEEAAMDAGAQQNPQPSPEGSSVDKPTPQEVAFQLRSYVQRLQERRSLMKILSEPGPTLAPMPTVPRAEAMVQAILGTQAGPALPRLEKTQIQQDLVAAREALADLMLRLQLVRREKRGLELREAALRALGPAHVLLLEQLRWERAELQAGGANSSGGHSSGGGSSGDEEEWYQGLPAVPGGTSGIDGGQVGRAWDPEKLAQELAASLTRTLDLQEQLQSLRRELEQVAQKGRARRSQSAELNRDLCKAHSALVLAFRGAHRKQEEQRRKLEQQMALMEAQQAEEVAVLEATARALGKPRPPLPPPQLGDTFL
B4: Carbonic anhydrase-related protein (Homo sapiens), P35219 (parent)
chain: MADLSFIEDTVAFPEKEEDEEEEEEGVEWGYEEGVEWGLVFPDANGEYQSPINLNSREARYDPSLLDVRLSPNYVVCRDCEVTNDGHTIQVILKSKSVLSGGPLPQGHEFELYEVRFHWGRENQRGSEHTVNFKAFPMELHLIHWNSTLFGSIDEAVGKPHGIAIIALFVQIGKEHVGLKAVTEILQDIQYKGKSKTIPCFNPNTLLPDPLLRDYWVYEGSLTIPPCSEGVTWILFRYPLTISQLQIEEFRRLRTHVKGAELVEGCDGILGDNFRPTQPLSDRVIRAAFQ
partner: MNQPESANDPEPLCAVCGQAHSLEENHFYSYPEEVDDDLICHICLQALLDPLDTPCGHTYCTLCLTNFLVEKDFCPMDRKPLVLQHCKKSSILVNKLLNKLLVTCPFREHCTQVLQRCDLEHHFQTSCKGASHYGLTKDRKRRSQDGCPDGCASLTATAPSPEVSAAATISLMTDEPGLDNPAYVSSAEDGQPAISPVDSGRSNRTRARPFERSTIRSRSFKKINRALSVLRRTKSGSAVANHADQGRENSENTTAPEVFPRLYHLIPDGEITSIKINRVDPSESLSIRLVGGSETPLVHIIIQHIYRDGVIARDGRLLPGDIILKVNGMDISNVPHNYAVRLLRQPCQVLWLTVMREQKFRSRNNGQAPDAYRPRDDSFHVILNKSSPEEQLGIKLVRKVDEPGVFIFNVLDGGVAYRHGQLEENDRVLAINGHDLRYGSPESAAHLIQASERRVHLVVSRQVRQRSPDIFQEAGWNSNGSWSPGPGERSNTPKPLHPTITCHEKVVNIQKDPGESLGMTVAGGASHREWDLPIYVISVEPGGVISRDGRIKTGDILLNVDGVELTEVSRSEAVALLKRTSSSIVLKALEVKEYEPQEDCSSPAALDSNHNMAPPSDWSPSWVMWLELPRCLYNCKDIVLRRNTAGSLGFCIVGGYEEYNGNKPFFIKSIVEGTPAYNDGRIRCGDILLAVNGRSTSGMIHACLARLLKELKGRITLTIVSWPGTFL
B5: Complement factor H-related protein 5 (Homo sapiens), Q9BXR6 (parent)
chain: MLLLFSVILISWVSTVGGEGTLCDFPKIHHGFLYDEEDYNPFSQVPTGEVFYYSCEYNFVSPSKSFWTRITCTEEGWSPTPKCLRMCSFPFVKNGHSESSGLIHLEGDTVQIICNTGYSLQNNEKNISCVERGWSTPPICSFTKGECHVPILEANVDAQPKKESYKVGDVLKFSCRKNLIRVGSDSVQCYQFGWSPNFPTCKGQVRSCGPPPQLSNGEVKEIRKEEYGHNEVVEYDCNPNFIINGPKKIQCVDGEWTTLPTCVEQVKTCGYIPELEYGYVQPSVPPYQHGVSVEVNCRNEYAMIGNNMITCINGIWTELPMCVATHQLKRCKIAGVNIKTLLKLSGKEFNHNSRIRYRCSDIFRYRHSVCINGKWNPEVDCTEKREQFCPPPPQIPNAQNMTTTVNYQDGEKVAVLCKENYLLPEAKEIVCKDGRWQSLPRCVESTAYCGPPPSINNGDTTSFPLSVYPPGSTVTYRCQSFYKLQGSVTVTCRNKQWSEPPRCLDPCVVSEENMNKNNIQLKWRNDGKLYAKTGDAVEFQCKFPHKAMISSPPFRAICQEGKFEYPICE
partner: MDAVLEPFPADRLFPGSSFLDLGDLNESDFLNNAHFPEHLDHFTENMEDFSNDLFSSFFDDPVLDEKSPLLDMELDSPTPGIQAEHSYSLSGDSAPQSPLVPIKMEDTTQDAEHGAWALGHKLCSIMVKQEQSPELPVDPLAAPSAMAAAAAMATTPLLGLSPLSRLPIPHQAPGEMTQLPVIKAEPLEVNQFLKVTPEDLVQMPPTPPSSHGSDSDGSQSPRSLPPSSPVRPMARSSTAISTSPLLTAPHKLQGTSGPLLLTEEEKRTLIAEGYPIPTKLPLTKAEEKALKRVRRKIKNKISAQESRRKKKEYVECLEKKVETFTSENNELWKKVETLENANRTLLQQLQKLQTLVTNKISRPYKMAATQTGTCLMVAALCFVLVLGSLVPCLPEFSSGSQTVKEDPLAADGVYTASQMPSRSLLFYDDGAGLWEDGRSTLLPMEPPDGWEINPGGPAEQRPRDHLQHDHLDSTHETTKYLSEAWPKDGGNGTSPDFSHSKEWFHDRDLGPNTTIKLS
B6: Cytidine deaminase (Homo sapiens), P32320 (parent)
chain: MAQKRPACTLKPECVQQLLVCSQEAKKSAYCPYSHFPVGAALLTQEGRIFKGCNIENACYPLGICAERTAIQKAVSEGYKDFRAIAIASDMQDDFISPCGACRQVMREFGTNWPVYMTKPDGTYIVMTVQELLPSSFGPEDLQKTQ
partner: B4 partner
B7: EF-hand domain-containing protein 1 (Homo sapiens), Q5JVL4 (parent)
chain: MVSNPVHGLPFLPGTSFKDSTKTAFHRSQTLSYRNGYAIVRRPTVGIGGDRLQFNQLSQAELDELASKAPVLTYGQPKQAPPADFIPAHVAFDKKVLKFDAYFQEDVPMSTEEQYRIRQVNIYYYLEDDSMSVIEPVVENSGILQGKLIKRQRLAKNDRGDHYHWKDLNRGINITIYGKTFRVVDCDQFTQVFLESQGIELNPPEKMALDPYTELRKQPLRKYVTPSDFDQLKQFLTFDKQVLRFYAIWDDTDSMYGECRTYIIHYYLMDDTVEIREVHERNDGRDPFPLLMNRQRVPKVLVENAKNFPQCVLEISDQEVLEWYTAKDFIVGKSLTILGRTFFIYDCDPFTRRYYKEKFGITDLPRIDVSKREPPPVKQELPPYNGFGLVEDSAQNCFALIPKAPKKDVIKMLVNDNKVLRYLAVLESPIPEDKDRRFVFSYFLATDMISIFEPPVRNSGIIGGKYLGRTKVVKPYSTVDNPVYYGPSDFFIGAVIEVFGHRFIILDTDEYVLKYMESNAAQYSPEALASIQNHVRKREAPAPEAESKQTEKDPGVQELEALIDTIQKQLKDHSCKDNIREAFQIYDKEASGYVDRDMFFKICESLNVPVDDSLVKELIRMCSHGEGKINYYNFVRAFSN
partner: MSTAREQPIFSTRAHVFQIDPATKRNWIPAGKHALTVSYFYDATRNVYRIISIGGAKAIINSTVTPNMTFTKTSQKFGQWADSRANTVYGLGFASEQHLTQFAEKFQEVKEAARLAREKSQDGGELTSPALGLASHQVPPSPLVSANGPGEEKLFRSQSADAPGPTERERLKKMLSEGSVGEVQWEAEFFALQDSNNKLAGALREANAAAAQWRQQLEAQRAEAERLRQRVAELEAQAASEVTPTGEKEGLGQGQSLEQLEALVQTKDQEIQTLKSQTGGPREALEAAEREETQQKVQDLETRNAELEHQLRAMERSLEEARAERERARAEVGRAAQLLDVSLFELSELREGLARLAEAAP

Variants of: B1
Details: with ima7_human KPNA6, O60684

Variant | effect of a mutation on the interaction
S113A | with no effect
A114S | with no effect

Variants of: B1
Details: with meox2_human MEOX2, P50222
Chain of meox2_human MEOX2, P50222 (P50222 whole entry): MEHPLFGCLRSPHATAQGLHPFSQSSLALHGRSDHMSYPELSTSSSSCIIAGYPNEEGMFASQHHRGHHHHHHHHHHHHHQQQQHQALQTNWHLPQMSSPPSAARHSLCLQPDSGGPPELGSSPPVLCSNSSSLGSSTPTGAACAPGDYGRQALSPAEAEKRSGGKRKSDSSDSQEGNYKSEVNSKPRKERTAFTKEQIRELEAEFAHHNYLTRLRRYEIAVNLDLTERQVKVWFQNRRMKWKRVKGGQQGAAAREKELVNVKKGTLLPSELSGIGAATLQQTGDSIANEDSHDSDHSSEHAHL

Variant | effect of a mutation on the interaction
S113A | with no effect
A114S | with no effect

Variants of: B2
Details: with pk2l1_human PKD2L1, Q9P0L9

Variant | effect of a mutation on the interaction
R200Q | with no effect
G20D | disrupting interaction strength
L90P | disrupting interaction strength

Variants of: B3
Details: with usbp1_human USHBP1, Q8N6Y0

Variant | effect of a mutation on the interaction
R339H | with no effect
A407D | with no effect

Variants of: B4
Details: with lnx1_human LNX1, Q8TBB1

Variant | effect of a mutation on the interaction
S100P | disrupting interaction strength

Variants of: B5
Details: with cr3l1_human CREB3L1, Q96BA8

Variant | effect of a mutation on the interaction
F192L | with no effect
G145E | with no effect
P46S | with no effect
R356H | with no effect

Variants of: B6
Details: with lnx1_human LNX1, Q8TBB1

Variant | effect of a mutation on the interaction
A70T | with no effect

Variants of: B7
Details: with home3_human HOMER3, Q9NSC5

Variant | effect of a mutation on the interaction
P77T | disrupting interaction strength
T508R | with no effect
A394S | disrupting interaction strength
R221H | disrupting interaction strength
M448T | with no effect

From IntAct's records for PubMed 25910212
